Experimental findings from patent US20140286960A1 (CANGENE, published 2014) are described below.

In the test the target is Staphylococcus aureus alpha-hemolysin (Staphylococcus aureus, UniProt P09616).
Sequence of Staphylococcus aureus alpha-hemolysin (P09616 27-319 limits assumed): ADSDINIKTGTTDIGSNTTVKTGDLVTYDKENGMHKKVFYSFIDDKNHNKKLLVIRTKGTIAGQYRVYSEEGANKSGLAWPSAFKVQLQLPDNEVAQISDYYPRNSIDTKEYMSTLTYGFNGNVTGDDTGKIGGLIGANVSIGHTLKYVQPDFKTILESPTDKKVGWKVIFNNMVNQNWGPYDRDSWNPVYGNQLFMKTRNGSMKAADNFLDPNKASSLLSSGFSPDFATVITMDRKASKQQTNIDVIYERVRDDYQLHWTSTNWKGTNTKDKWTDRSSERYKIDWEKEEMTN

B1: CAN24G4 monoclonal antibody (antibody, V domains shown)
VH: EVHLQQSGAELVKPGASVRLSCTGSGLDIKDTYIHWVKKRPEQGLEWIGRIDPANGITKYDPKFQGKATVTADTSSNTAYLQFSSLTSEDSAVYYCSSEYYPYPMDYWGQGTSVTVSS
VL: DIKMTQPPSSMYASLGERVTVTCKASQDISSFLTWFQQKPGKSPKILIYRANRVVDGVPSRFSGSGSGHDYSLTISSLESEDMGIYYCLQYDEFPWTFGGGTKLEIK
Broadly, the Kd is the concentration at which binding is half-saturated. Read a low Kd as a tighter complex. The term koff denotes the rate constant with which the complex falls apart. As a reminder, the kon is the second-order rate constant of association. Low values mean slower complex formation, high ones faster complex formation. B1 gave a Kd of 9.4 nM, a koff of 0.004 s⁻¹ and an association rate constant (kon) of 430000 M⁻¹ s⁻¹.
